Square brackets hold non-standard residues; d marks the D form. octavalent 20 kDa PEG = 20 kDa PEG with eight arms, each linked to one peptide copy through Cys; tetravalent 20 kDa PEG = 20 kDa PEG with four arms, each linked to one peptide copy through Cys; trivalent 20 kDa PEG = 20 kDa PEG with three arms, each linked to one peptide copy through Cys; hArg = N=C(N)NCCCC[C@H](N)C(=O)O; Cit = NC(=O)NCCC[C@H](N)C(=O)O; 3IPA = not defined here
Each binder was assayed against T1, CGRP1 receptor (CRLR/RAMP1 complex) of human neuroblastoma SK-N-MC cells (human, UniProt Q16602 23-461; O60894 27-148) (assay: cell-based or functional assay).
T1 sequence (Q16602 23-461, chain 1 of 2): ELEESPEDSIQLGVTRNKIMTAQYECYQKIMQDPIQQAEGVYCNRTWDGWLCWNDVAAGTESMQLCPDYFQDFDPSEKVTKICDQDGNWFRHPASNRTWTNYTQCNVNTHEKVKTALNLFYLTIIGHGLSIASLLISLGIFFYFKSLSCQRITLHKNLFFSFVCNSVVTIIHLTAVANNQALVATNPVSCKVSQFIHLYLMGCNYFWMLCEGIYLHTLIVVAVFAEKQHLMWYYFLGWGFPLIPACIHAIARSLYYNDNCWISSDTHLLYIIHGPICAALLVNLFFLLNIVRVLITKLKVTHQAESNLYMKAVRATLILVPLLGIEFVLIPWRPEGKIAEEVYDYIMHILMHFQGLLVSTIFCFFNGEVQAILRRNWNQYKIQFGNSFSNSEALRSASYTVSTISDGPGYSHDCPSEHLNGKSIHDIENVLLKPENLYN
T1 sequence (O60894 27-148, chain 2 of 2): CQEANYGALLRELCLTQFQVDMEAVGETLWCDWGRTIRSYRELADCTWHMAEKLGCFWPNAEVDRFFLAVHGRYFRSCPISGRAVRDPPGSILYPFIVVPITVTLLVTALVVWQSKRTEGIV

Binder | PEG-peptide IC50 [nM] | Peptide IC50 [nM]
Ac-WVTHQLAGLLS[Cit]SGGVV[hArg]KNFVPTDVGPFAF-NH2 (also: PEG-conjugated, in most cases at Lys25) [PEG-peptide of SEQ ID NO 884] | 8.87 | –
Ac-WVTH[Cit]LAGLLSQSGGVV[hArg]KNFVPTDVGPFAF-NH2 (also: PEG-conjugated, in most cases at Lys25) [PEG-peptide of SEQ ID NO 883] | 7.42 | –
Ac-WVTHQLAGLLSQSGGVV[hArg]KNFVPTDVGPFAF-NH2 (also: PEG-conjugated, in most cases at Lys25) [PEG-peptide of SEQ ID NO 885] | 12.4 | –

Second part, the binder after the results:

PEG-peptide IC50 [nM] | Peptide IC50 [nM] | Binder
– | 1.42 | Ac-WVTHQLAGLLSQSGGVV[hArg]KNFVPTDVGPFAF-NH2 (SMILES CC(=O)N[C@@H](Cc1c[nH]c2ccccc12)C(=O)N[C@H](C(=O)N[C@H](C(=O)N[C@@H](Cc1c[nH]cn1)C(=O)N[C@@H](CCC(N)=O)C(=O)N[C@@H](CC(C)C)C(=O)N[C@@H](C)C(=O)NCC(=O)N[C@@H](CC(C)C)C(=O)N[C@@H](CC(C)C)C(=O)N[C@@H](CO)C(=O)N[C@@H](CCC(N)=O)C(=O)N[C@@H](CO)C(=O)NCC(=O)NCC(=O)N[C@H](C(=O)N[C@H](C(=O)N[C@@H](CCCCNC(=N)N)C(=O)N[C@@H](CCCCN)C(=O)N[C@@H](CC(N)=O)C(=O)N[C@@H](Cc1ccccc1)C(=O)N[C@H](C(=O)N1CCC[C@H]1C(=O)N[C@H](C(=O)N[C@@H](CC(=O)O)C(=O)N[C@H](C(=O)NCC(=O)N1CCC[C@H]1C(=O)N[C@@H](Cc1ccccc1)C(=O)N[C@@H](C)C(=O)N[C@@H](Cc1ccccc1)C(N)=O)C(C)C)[C@@H](C)O)C(C)C)C(C)C)C(C)C)[C@@H](C)O)C(C)C) [SEQ ID NO 885]
– | 4.96 | WVTHXLAGLLSXSGGVVXKNFVPTDVGPFAF (Ac-WVTH[hCit]LAGLLS[hCit]SGGVV[hArg]KNFVPTDVGPFAF-NH2) [SEQ ID NO 886]

Molecular target: T1, CGRP1 receptor (CRLR/RAMP1 complex) of …
Assay: cell-based or functional assay
Remark: another data set of the same source

Binder | IC50 [nM]
Ac-WVTHRLAGLLSRSGGVVRC(20 kDa branched MeO‑PEG2)NFVPTDVGPFAF-NH2 [SEQ ID NO 768] | 23.8
Ac-WVTHRLAGLLSRSGGVVRC(30 kDa MeO‑PEG)NFVPTDVGPFAF-NH2 [SEQ ID NO 767] | 7.86
Ac-WVTHRLAGLLSQSGGVVRC(20 kDa MeO‑PEG)NFVPTDVGPFAF-NH2 [SEQ ID NO 775] | 4.69
Ac-WVTHRLAGLLSRSGGVVRCNFVPTDVGPFAF-NH2 [SEQ ID NO 764] | 0.91
Ac-WVTHRLAGLLSRSGGVVRC(20 kDa NEM‑PEG)NFVPTDVGPFAF-NH2 [SEQ ID NO 771] | 0.3
Ac-WVTHRLAGLLSRSGGVVRC(20 kDa branched MeO‑PEG2)NFVPTDVGPFAF-NH2 [SEQ ID NO 770] | 0.17
{Ac-3IPA}-VTHRLAGLLSRSGGVVRCNFVPTDVGPFAF-NH2 (reading uncertain; also: places 3IPA at position 1, printed as Ac-[3IPA]-VTHRLAGLLSRSGGVVRCNFVPTDVGPFAF-amide) [SEQ ID NO 778] | 0.35
Ac-WVTHRLAGLLSRSGGVVRC(40 kDa branched MeO‑PEG2)NFVPTDVGPFAF-NH2 [SEQ ID NO 769] | 33.4
Ac-WVTHRLAGLLS[dR]SGGVVRCNFVPTDVGPFAF-NH2 (SMILES CC(=O)N[C@@H](Cc1c[nH]c2ccccc12)C(=O)N[C@H](C(=O)N[C@H](C(=O)N[C@@H](Cc1c[nH]cn1)C(=O)N[C@@H](CCCNC(=N)N)C(=O)N[C@@H](CC(C)C)C(=O)N[C@@H](C)C(=O)NCC(=O)N[C@@H](CC(C)C)C(=O)N[C@@H](CC(C)C)C(=O)N[C@@H](CO)C(=O)N[C@H](CCCNC(=N)N)C(=O)N[C@@H](CO)C(=O)NCC(=O)NCC(=O)N[C@H](C(=O)N[C@H](C(=O)N[C@@H](CCCNC(=N)N)C(=O)N[C@@H](CS)C(=O)N[C@@H](CC(N)=O)C(=O)N[C@@H](Cc1ccccc1)C(=O)N[C@H](C(=O)N1CCC[C@H]1C(=O)N[C@H](C(=O)N[C@@H](CC(=O)O)C(=O)N[C@H](C(=O)NCC(=O)N1CCC[C@H]1C(=O)N[C@@H](Cc1ccccc1)C(=O)N[C@@H](C)C(=O)N[C@@H](Cc1ccccc1)C(N)=O)C(C)C)[C@@H](C)O)C(C)C)C(C)C)C(C)C)[C@@H](C)O)C(C)C) [SEQ ID NO 776] | 0.59
Ac-WVTHRLAGLLS[dR]SGGVVRC(MeO‑PEG 20 kDa)NFVPTDVGPFAF-NH2 [SEQ ID NO 777] | 19.4
{Ac-3IPA}-VTHRLAGLLSRSGGVVRC(20 kDa MeO‑PEG)NFVPTDVGPFAF-NH2 (reading uncertain; also: places 3IPA at position 1, printed as Ac-[3IPA]-VTHRLAGLLSRSGGVVRC^(20 kDa MeO-PEG)NFVPTDVGPFAF-amide) [SEQ ID NO 779] | 2.22
Ac-WVTHRLAGLLSASGGVVRC(20 kDa MeO‑PEG)NFVPTDVGPFAF-NH2 [SEQ ID NO 773] | 6.2
Ac-WVTHRLAGLLSASGGVVRCNFVPTDVGPFAF-NH2 [SEQ ID NO 772] | 2.75
Ac-WVTHRLAGLLSRSGGVVRC(5 kDa MeO‑PEG)NFVPTDVGPFAF-NH2 [SEQ ID NO 765] | 2.52

Now from value to binder:

IC50 [nM] | Binder
0.08 | Ac-WVTHRLAGLLSRSGGVVRC(tetravalent 20 kDa PEG)NFVPTDVGPFAF-NH2 (also: tetravalent PEG joins four peptide copies) [SEQ ID NO 782]
0.19 | Ac-WVTHRLAGLLSRSGGVVRC(trivalent 20 kDa PEG)NFVPTDVGPFAF-NH2 (also: trivalent PEG joins three peptide copies) [SEQ ID NO 781]
1.4 | Ac-WVTHRLAGLLSRSGGVVRC(octavalent 20 kDa PEG)NFVPTDVGPFAF-NH2 (also: eight peptides linked via Cys to one octavalent 20 kDa PEG) [SEQ ID NO 783]
2.1 | WVTHXLAGLLSXSGGVVRKNFVPTDVGPFAF (Ac-WVTH[hArg]LAGLLS[hArg]SGGVVRKNFVPTDVGPFAF-amide) [SEQ ID NO 784]
0.57 | WVTHRLAGLLSXSGGVVRKNFVPTDVGPFAF (Ac-WVTHRLAGLLS[hArg]SGGVVRKNFVPTDVGPFAF-amide) [SEQ ID NO 786]
0.37 | WVTHXLAGLLSXSGGVVRKNFVPTDVGPFAF (Ac-WVTH[hArg]LAGLLS[hArg]SGGVVRK^(20 kDa MeO-PEG)NFVPTDVGPFAF-amide) [SEQ ID NO 785]
